Assay results from patent US10744088B2, “Method for preparing ophthalmic preparation containing thymosin beta-4” (G-TREEBNT CO., LTD., priority 2015, dated 2020).

How the values were obtained:
[1] = Impurity analysis (single maximum impurity, thymosin β4 sulfoxide) by HPLC and LC/MS; assay type: physicochemical; conditions: after preparation; impurity identified as thymosin β4 sulfoxide
Description: The amounts of impurities in the ophthalmic preparations prepared in the above Examples and Comparative Examples were analyzed as following, and the results are shown in Table 3.
Specifically, thymosin β4 sulfoxide was synthesized following the methods in the paper (Eur. J. Biochem. 223, 345-350 (1994), Nature Medicine 5(12), 1424 (1999)). Thymosin β4 sulfoxide is a substance modified from thymosin β4 by oxidation, which causes a change in its pharmacological activity compared to thymosin β4.
The molecular weight of the synthesized thymosin β4 sulfoxide was identified by mass analysis (LC/MS) using the MALDI-TOF MS instrument. The analyzed molecular weight was 4,978.5, which was consistent with the value in the document of 4,980±2.
The ophthalmic preparations prepared in Example 1 and Comparative Examples 1 and 2 and the synthesized thymosin β4 sulfoxide were analyzed by HPLC and LC/MS under the same conditions.

[2] = Purity analysis of ophthalmic preparations by HPLC; assay type: physicochemical; conditions: after preparation, HPLC UV 205 nm
Description: The purity changes of the ophthalmic preparations prepared in the above Examples and Comparative Examples were analyzed during the period from the initial time after preparation to 12 months later with a high performance liquid chromatography (HPLC), Agilent 1200 instrument under the conditions in Tables 1 and 2, and the results are shown in Table 3.

thymosin β4 acetate [Thymosin β4 (raw material)]
Single maximum impurity (%) [1]: Not detected | Purity (%) [2]: 99.3%
